According to US12269859B2, “Synthetic immune receptors and methods of use thereof” (Angeles Therapeutics, Inc., priority 2016, dated 2025):

Tested on: target antigen-expressing cell line
Assay: Jurkat NFAT-GFP assay, coculture with target cell lines expressing the respective target antigen (summary Table 10A)
Type: cell-based, human
Parameters: key: The signs +/−, +, 2+ etc. after the name of the cell lines indicate the relative degree of positivity on the Jurkat-NFAT-GFP assay as measured by the % GFP positive cells; +: relative degree of positivity on the Jurkat-NFAT-GFP assay as measured by the % GFP positive cells; 2+: relative degree of positivity on the Jurkat-NFAT-GFP assay as measured by the % GFP positive cells
Outline: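 Stable SIR expression in Jurkat-NFAT-GFP cells by lentiviral transfer and puromycin selection; coculture with target cells (E:T approximately 1:2) for 4 to 18 hours; flow cytometric measurement of NFAT-driven GFP; scoring as positive when % GFP-positive cells exceeds that of parental reporter cells.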

B1: 091616-Z01 (protein)
chain: MALPVTALLLPLALLLHAARPDIVMTQSPDSLAVSLGERATINCKSSQSILYSSNQKNYLAWYQQKPGQSPKLLIYWASTRESGVPDRFSGSGSGTDFTLTISSLQAEDVAVYYCHQYISSYTFGQGTKLEIKLEEQKLISEEDLGSGEDLKNVFPPEVAVFEPSKAEIAHTQKATLVCLATGFYPDHVELSWWVNGKEVHSGVCTDPQPLKEQPALNDSRYCLSSRLRVSATFWQNPRNHFRCQVQFYGLSENDEWTQDRAKPVTQIVSAEAWGRADCGITSASYHQGVLSATILYEILLGKATLYAVLVSALVLMAMVKRKDSRGRAKRSGSGATNFSLLKQAGDVEENPGPTSMDWIWRILFLVGAATGAHSFEQVQLVQSGAEVKKPGASVKVSCKASGYTFASQWMHWMRQAPGQGLEWIGWINPGNVNTKYNEKFKGRATLTVDTSTNTAYMELSSLRSEDTAVYYCARSTWYRPLDYWGQGTLVTVSSTREQKLISEEDLGSGIQNPDPAVYQLRDSKSSDKSVCLFTDFDSQTNVSQSKDSDVYITDKCVLDMRSMDFKSNSAVAWSNKSDFACANAFNNSIIPEDTFFPSSDVPCDVKLVEKSFETDTNLNFQNLSVIGFRILLLKVAGFNLLMTLRLWSSRAKRSGSGVKQTLNFDLLKLAGDVESNPGPSRGHMTEYKPTVRLATRDDVPRAVRTLAAAFADYPATRHTVDPDRHIERVTELQELFLTRVGLDIGKVWVADDGAAVAVWTTPESVEAGAVFAEIGPRMAELSGSRLAAQQQMEGLLAPHRPKEPAWFLATVGVSPDHQGKGLGSAVVLPGVEAAERAGVPAFLETSAPRNLPFYERLGFTVTADVEVPEGPRTWCMTRKPGA
modifications: Synthetic Immune Receptor (SIR)
NFAT-GFP ASSAY Positive Cell lines: L428 (SIR-expressing Jurkat-NFAT-GFP cells cocultured with L428, relative % GFP positive cells): L428 (+/−)

B2: 041816-A03 (protein)
chain: MALPVTALLLPLALLLHAARPDIQMTQSPSSLSASLGERVSLTCRATQELSGYLSWLQQKPDGTIKRLIYAASTLDSGVPKRFSGNRSGSDYSLTISSLESEDFADYYCLQYAIYPYTFGGGTKLEIKLEDLKNVFPPEVAVFEPSEAEISHTQKATLVCLATGFYPDHVELSWWVNGKEVHSGVSTDPQPLKEQPALNDSRYCLSSRLRVSATFWQNPRNHFRCQVQFYGLSENDEWTQDRAKPVTQIVSAEAWGRADCGFTSESYQQGVLSATILYEILLGKATLYAVLVSALVLMAMVKRKDSRGRAKRSGSGATNFSLLKQAGDVEENPGPTSMDWIWRILFLVGAATGAHSFEEVQLQQSGPELVKPGASVKMSCKASGYTFTSYFIHWVKQKPGQGLEWIGFINPYNDGSKYNEKFKGKATLTSDKSSSTAYMELSSLTSEDSAVYYCTRDDGYYGYAMDYWGQGTSVTVSSTREQKLISEEDGSGTPFPSLAPPIMLLVDGKQQMVVVCLVLDVAPPGLDSPIWFSAGNGSALDAFTYGPSPATDGTWTNLAHLSLPSEELASWEPLVCHTGPGAEGHSRSTQPMHLSGEASTARTCPQEPLRGTPGGALWLGVLRLLLFKLLLFDLLLTCSCLCDPAGPLPSPATTTRLRALGSHRLHPATETGGREATSSPRPQPRDRRWGDTPPGRKPGSPVRAKRSGSGVKQTLNFDLLKLAGDVESNPGPSRGHMTEYKPTVRLATRDDVPRAVRTLAAAFADYPATRHTVDPDRHIERVTELQELFLTRVGLDIGKVWVADDGAAVAVWTTPESVEAGAVFAEIGPRMAELSGSRLAAQQQMEGLLAPHRPKEPAWFLATVGVSPDHQGKGLGSAVVLPGVEAAERAGVPAFLETSAPRNLPFYERLGFTVTADVEVPEGPRTWCMTRKPGA
modifications: Polynucleotide encoding a Synthetic Immune Receptor (SIR)
NFAT-GFP ASSAY Positive Cell lines (coculture with L363 cells): (+/−), L363 (+/−), | NFAT-GFP ASSAY Positive Cell lines (coculture with RAJI cells): RAJI (+/−), U266 | NFAT-GFP ASSAY Positive Cell lines (coculture with U266 cells): (+/−), L363 (+/−),

B3: 110116-H02 (protein)
chain: MALPVTALLLPLALLLHAARPLEQKLISEEDLGSGDRPDPAVYQLRDSKSSDKSVCLFTDFDSQTNVSQSKDSDVYITDKCVLDMRSMDFKSNSAVAWSNKSDFACANAFNNSIIPEDTFFPSPESSCDVKLVEKSFETDTNLNFQNLSVIGFRILLLKVAGFNLLMTLRLWSSSSRAKRSGSGVKQTLNFDLLKLAGDVESNPGPTSMALPVTALLLPLALLLHAARPDIQMTQSTSSLSASLGDRVTISCSASQGINNYLNWYQQKPDGTVELLIYYTSTLQSGVPSRFSGSGSGTDYSLTISNLEPEDIGTYYCQQYSKLPRTFGGGTKLEIKGGGGSGGGGSGGGGSQVQLQQSGSELMMPGASVKISCKATGYTFSNYWIEWVKQRPGHGLEWIGEILPGTGRTIYNEKFKGKATFTADISSNTVQMQLSSLTSEDSAVYYCARRDYYGNFYYAMDYWGQGTSVTVSSTRGKPIPNPLLGLDSTGSGEDLKNVFPPEVAVFEPSEAEISHTQKATLVCLATGFYPDHVELSWWVNGKEVHSGVCTDPQPLKEQPALNDSRYCLSSRLRVSATFWQNPRNHFRCQVQFYGLSENDEWTQDRAKPVTQIVSAEAWGRADCGFTSESYQQGVLSATILYEILLGKATLYAVLVSALVLMAMVKRKDSRGRAKRSGSGATNFSLLKQAGDVEENPGPSRGHMTEYKPTVRLATRDDVPRAVRTLAAAFADYPATRHTVDPDRHIERVTELQELFLTRVGLDIGKVWVADDGAAVAVWTTPESVEAGAVFAEIGPRMAELSGSRLAAQQQMEGLLAPHRPKEPAWFLATVGVSPDHQGKGLGSAVVLPGVEAAERAGVPAFLETSAPRNLPFYERLGFTVTADVEVPEGPRTWCMTRKPGA
modifications: Synthetic Immune Receptor (SIR)
NFAT-GFP ASSAY Positive Cell lines (coculture with L363 cells): L363 (+/−), U266 | NFAT-GFP ASSAY Positive Cell lines (coculture with U266 cells): (+)

B4: 072717-G01 (protein)
chain: MALPVTALLLPLALLLHAARPLEGKPIPNPLLGLDSTGSGEDLKNVFPPEVAVFEPSKAEIAHTQKATLVCLATGFYPDHVELSWWVNGKEVHSGVCTDPQPLKEQPALNDSRYCLSSRLRVSATFWQNPRNHFRCQVQFYGLSENDEWTQDRAKPVTQIVSAEAWGRADCGITSASYHQGVLSATILYEILLGKATLYAVLVSALVLMAMVKRKDSRGRAKRSGSGATNFSLLKQAGDVEENPGPTSMALPVTALLLPLALLLHAARPEFAVQLVESGGGLVQAGDSLRLTCTASGRAFSTYFMAWFRQAPGKEREFVAGIAWSGGSTAYADSVKGRFTISRDNAKNTVYLQMNSLKSEDTAVYYCASRGIEVEEFGAWGQGTQVTVSSPGGGGSPQVQLVESGGGLVQAGGSLRLSCAASGGTLSKNTVAWFRQAPGKERGFVASITWDGRTTYYADSVKGRFTISRDNAKNTVYLQMNSLKPEDTAVYVCADLGKWPAGPADYWGQGTQVTVSSEVAALEKEVAALEKEVAALEKEVAALEKTREQKLISEEDGSGIQNPDPAVYQLRDSKSSDKSVCLFTDFDSQTNVSQSKDSDVYITDKCVLDMRSMDFKSNSAVAWSNKSDFACANAFNNSIIPEDTFFPSSDVPCDVKLVEKSFETDTNLNFQNLSVIGFRILLLKVAGFNLLMTLRLWSSRAKRSGSGVKQTLNFDLLKLAGDVESNPGPSRGHMTEYKPTVRLATRDDVPRAVRTLAAAFADYPATRHTVDPDRHIERVTELQELFLTRVGLDIGKVWVADDGAAVAVWTTPESVEAGAVFAEIGPRMAELSGSRLAAQQQMEGLLAPHRPKEPAWFLATVGVSPDHQGKGLGSAVVLPGVEAAERAGVPAFLETSAPRNLPFYERLGFTVTADVEVPEGPRTWCMTRKPGA
NFAT-GFP ASSAY Positive Cell lines: L363 (SIR-expressing Jurkat-NFAT-GFP cells cocultured with L363, relative % GFP positive cells): L363 (+/−), U266 | NFAT-GFP ASSAY Positive Cell lines: U266 (SIR-expressing Jurkat-NFAT-GFP cells cocultured with U266, relative % GFP positive cells): (+/−)

B5: 082317-G04 (protein)
chain: MALPVTALLLPLALLLHAARPLEGKPIPNPLLGLDSTGSGEDLKNVFPPEVAVFEPSKAEIAHTQKATLVCLATGFYPDHVELSWWVNGKEVHSGVCTDPQPLKEQPALNDSRYCLSSRLRVSATFWQNPRNHFRCQVQFYGLSENDEWTQDRAKPVTQIVSAEAWGRADCGITSASYHQGVLSATILYEILLGKATLYAVLVSALVLMAMVKRKDSRGRAKRSGSGATNFSLLKQAGDVEENPGPTSMALPVTALLLPLALLLHAARPQIVLTQSPAIMSASPGEKVTITCSASSSVSYMHWFQQKPGTSPKLWIYSTSNLASGVPARFSGSGSGTSYSLTISRMEAEDAATYYCQQRSSYPPTFGGGTKLEIKGGGGSGGGGSGGGGSQVQLQQSGAELMKPGASVKISCKATGYTFSSYWIEWVKQRPGHGLEWIGEILPGSGSTNYNEKFKGKATFTADTSSNTAYMQLSSLTSEDSAVYYCARYDYPWFAYWGQGTLVTVSATREQKLISEEDGSGIQNPDPAVYQLRDSKSSDKSVCLFTDFDSQTNVSQSKDSDVYITDKCVLDMRSMDFKSNSAVAWSNKSDFACANAFNNSIIPEDTFFPSSDVPCDVKLVEKSFETDTNLNFQNLSVIGFRILLLKVAGFNLLMTLRLWSSRAKRSGSGVKQTLNFDLLKLAGDVESNPGPSRGHMTEYKPTVRLATRDDVPRAVRTLAAAFADYPATRHTVDPDRHIERVTELQELFLTRVGLDIGKVWVADDGAAVAVWTTPESVEAGAVFAEIGPRMAELSGSRLAAQQQMEGLLAPHRPKEPAWFLATVGVSPDHQGKGLGSAVVLPGVEAAERAGVPAFLETSAPRNLPFYERLGFTVTADVEVPEGPRTWCMTRKPGA
NFAT-GFP ASSAY Positive Cell lines (coculture with L428 cells): L428 (+/−)
